Data set [1] can be described thus: Total charge of substrate molecule and charge-balance molecule. Format: physicochemical. The source says:
FIG. 6B illustrates an exemplary charge-balance molecule (i.e. C16ArgArgOOOArgArgIleTyrGlyArgPheNH2, wherein OOO represents the optional O-spacers) that can be used balance the charge of the substrate molecule illustrated in FIG. 6A. The substrate molecule illustrated in FIG. 6A comprises a fluorescent moiety containing a sulfonate anion with a charge of ^−2. The substrate molecule illustrated in FIG. 6A further comprises a substrate moiety comprising three glutamate residues, each with a −1 charge. Thus, the total negative charge of the substrate molecule illustrated in FIG. 6A is ^−5 at physiological pH. […] The total positive charge of the charge-balance molecule illustrated in FIG. 6B is ^+5 at pH 7.6. Thus, the net charge of the compound comprising the substrate molecule illustrated in FIG. 6A and the charge-balance molecule illustrated in FIG. 6B is approximately zero at pH 7.6.

Data set [2] deals with tyrosine kinase Lyn (Homo sapiens, UniProt P07948). As to the kind of experiment: Detection of protein kinase activity (fluorogenic micelle assay). Conditions: 2 μM substrate molecule, 2 μM charge-balance molecule, 0 or 100 μM ATP, 5 nM Lyn; FIG. 8. Format: biochemical. Here is the method:
Kinase assays were performed using Corning 384-well, black, non-binding surface (NBS), microwell plates. Fluorescence was read in real time using a Molecular Dynamics Gemini XS plate reader, with excitation and emission set at 500 and 550 respectively. The plate was read every minute for one hour at ambient temperature.
Concentrations of the substrate molecule C16Lys(Dye 2)OOOGluGluIleTyrGlyGluPheNH2 and charge-balance molecule C16ArgArgOOOArgArgIleTyrGlyArg PheNH2 were determined by dilution of the purified peptides into dimethylformamide (200 µL) with 1 M NaOH (5 µL) and measuring the absorbance of 5-carboxy-2′,7′-dipyridyl-sulfonefluorescein (Dye2) at its absorbance maximum (548 nm). The extinction coefficient of Dye2 was assumed to be 80,000 cm1M-1.
A reaction solution was prepared containing the substrate molecule C16Lys(Dye 2)OOOGluGluIleTyrGlyGluPheNH2 (2 μM), and charge-balance molecule C16ArgArgOOOArgArgIleTyrGlyArg PheNH2 (2 μM), 20 mM Tris buffer, pH 7.6, MgCl2 (5 mM), DTT (5 mM) and Lyn (5 nM). The solution was pipetted into wells of a 384-well plate ([…] per well). ATP (0 or 100 μM) was added to initiate the kinase reaction. The plate was read at 500 nm excitation, 550 nm emission, each minute for 1 hour.

In data set [3] the test system is T1, substrate molecule C16Lys(Dye 2)OOOGluGluIleTyrGlyGluPheNH2.
T1 sequence: KEEIYGEF

*: point of attachment. Palmitoyl = CCCCCCCCCCCCCCCC(=O)*; K(Dye 2) = not defined here; code O = not defined here

Chain of tyrosine kinase Lyn (P07948 whole entry): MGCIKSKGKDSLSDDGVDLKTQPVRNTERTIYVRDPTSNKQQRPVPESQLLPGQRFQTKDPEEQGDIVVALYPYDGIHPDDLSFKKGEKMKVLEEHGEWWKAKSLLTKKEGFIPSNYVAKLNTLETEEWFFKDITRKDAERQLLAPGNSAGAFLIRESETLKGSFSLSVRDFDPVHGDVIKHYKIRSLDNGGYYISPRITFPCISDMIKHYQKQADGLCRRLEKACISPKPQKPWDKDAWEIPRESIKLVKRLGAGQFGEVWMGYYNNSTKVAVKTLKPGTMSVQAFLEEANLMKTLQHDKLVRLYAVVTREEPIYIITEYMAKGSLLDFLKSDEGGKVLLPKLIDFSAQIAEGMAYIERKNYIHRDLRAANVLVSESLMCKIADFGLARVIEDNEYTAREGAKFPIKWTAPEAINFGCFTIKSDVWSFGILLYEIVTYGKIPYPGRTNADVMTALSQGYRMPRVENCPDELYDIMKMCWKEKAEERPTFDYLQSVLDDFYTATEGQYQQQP

“C16ArgArgOOOArgArgIleTyrGlyArgPheNH2 ({Palmitoyl-Arg-Arg-code O-code O-code O}-RRIYGRF-NH2; reading uncertain; also: printed as C16ArgArgOOOArgArgIleTyrGlyArgPheNH2) [charge-balance molecule balancing the charge of the substrate molecule; OOO = O-spacers]”: in data set [1] (pH 7.6), the total positive charge result is listed as “+5”.

Turning to “C16Lys(Dye 2)OOOGluGluIleTyrGlyGluPheNH2 ({Palmitoyl-K(Dye 2)-code O-code O-code O}-EEIYGEF-NH2; reading uncertain; also: printed as C16Lys(Dye 2)OOOGluGluIleTyrGlyGluPheNH2) [substrate molecule for tyrosine kinase Lyn; OOO = O-spacers, Dye2 = 5-carboxy-2′,7′-dipyridyl-sulfonefluorescein]”, in data set [1] (physiological pH), the total negative charge is recorded as −5. The “fluorescence change on addition of tyrosine kinase Lyn” value in data set [2] is “increase in fluorescence over time”.

For tyrosine kinase Lyn, in data set [3], the “fluorescence over time (rate of the kinase reaction, 0 or 100 µM ATP)” value is “The addition of tyrosine kinase Lyn to the micelle comprising the substrate molecule and charge-balance molecule cause an increase in fluorescence over time”.

Source of the values: US20060121553A1, “Fluorogenic enzyme assay methods, kits and compositions using charge-balancers” (Applera Corporation, priority 2004, published 2006).
